Tested on: T1, cleavable peptide CP(AQ), Lys(AQ)SerGlyProLeuGlyValArgGlySerSerCys
T1 sequence: KSGPLGVRGSSC

purified, recombinant MMP2 (BioLegend, #554304)
proteolytic cleavage followed by thin layer chromatography: after the incubation of CP(AQ) with MMP2, the compound was able to shift organic solution, with a transformed behavior from hydrophilic to hydrophobic

Source: patent US20190256597
